According to article PMC9482650, “Quantitative fragmentomics allow affinity mapping of interactomes” (Nature Communications, 2022):

Legend:
Assay in all cases: holdup assay
Set-up in all cases: key: below the threshold = too weak to quantify, mostly under pKd 3.1 to 4
Conditions in all cases: plain residues with an end cap or a label only (N-terminal biotin on a linker: ado-ado)
Inadl_2, Q8NI35 = target: Inadl_2, Q8NI35
ARHGAP21, Q5T5U3 = target: T1, ARHGAP21, Q5T5U3
T1 sequence (Q5T5U3 45-169, limits assumed, looked up): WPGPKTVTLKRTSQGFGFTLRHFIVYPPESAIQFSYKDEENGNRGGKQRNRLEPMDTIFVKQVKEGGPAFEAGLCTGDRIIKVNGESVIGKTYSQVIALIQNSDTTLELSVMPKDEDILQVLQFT

SNTA1, Q13424 = target: T2, SNTA1, Q13424
T2 sequence (Q13424 82-180, limits assumed, looked up): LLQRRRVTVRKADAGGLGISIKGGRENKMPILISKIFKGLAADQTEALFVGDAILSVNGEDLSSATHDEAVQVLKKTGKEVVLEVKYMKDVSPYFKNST

PDLIM1, O00151 = target: PDLIM1, O00151
LIMK2, P53671 = target: LIMK2, P53671
NHERF2_2, Q15599 = target: NHERF2_2, Q15599
DLG1_1, Q12959 = target: DLG1_1, Q12959
MAGI2_4, Q86UL8 = target: MAGI2_4, Q86UL8
GRIP1_4, Q9Y3R0 = target: T3, GRIP1_4, Q9Y3R0
T3 sequence (Q9Y3R0 467-571, limits assumed, looked up): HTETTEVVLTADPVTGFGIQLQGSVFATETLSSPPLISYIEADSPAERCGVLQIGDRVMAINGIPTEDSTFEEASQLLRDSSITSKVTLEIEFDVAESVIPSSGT

APBA2_2, Q99767 = target: T4, APBA2_2, Q99767
T4 sequence (Q99767 654-744, limits assumed, looked up): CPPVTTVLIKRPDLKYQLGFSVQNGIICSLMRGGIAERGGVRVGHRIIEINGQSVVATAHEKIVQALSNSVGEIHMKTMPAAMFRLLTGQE

PCLO, Q9Y6V0 = target: T5, PCLO, Q9Y6V0
T5 sequence (Q9Y6V0 4491-4600, limits assumed, looked up): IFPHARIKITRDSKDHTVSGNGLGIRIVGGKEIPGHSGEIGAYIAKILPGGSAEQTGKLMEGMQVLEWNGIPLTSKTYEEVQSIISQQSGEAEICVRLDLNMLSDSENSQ

GRID2IP_1, A4D2P6 = target: GRID2IP_1, A4D2P6
IL16_4, Q14005 = target: IL16_4, Q14005
MAGI3_2, Q5TCQ9 = target: MAGI3_2, Q5TCQ9
DLG4_1, P78352 = target: DLG4_1, P78352
DLG2_2, Q15700 = target: DLG2_2, Q15700
MAGI2_6, Q86UL8 = target: MAGI2_6, Q86UL8
FRMPD2_1, Q68DX3 = target: FRMPD2_1, Q68DX3
TJP2_1, Q9UDY2 = target: TJP2_1, Q9UDY2
MPP6, Q9NZW5 = target: T6, MPP6, Q9NZW5
T6 sequence (Q9NZW5 125-219, limits assumed, looked up): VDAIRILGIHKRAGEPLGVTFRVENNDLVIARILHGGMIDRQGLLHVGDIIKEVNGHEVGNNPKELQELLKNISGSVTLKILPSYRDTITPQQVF

APBA1_2, Q02410 = target: T7, APBA1_2, Q02410
T7 sequence (Q02410 742-832, limits assumed, looked up): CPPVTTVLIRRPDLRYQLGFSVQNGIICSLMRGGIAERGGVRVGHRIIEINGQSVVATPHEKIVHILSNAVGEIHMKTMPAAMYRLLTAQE

CASK, O14936 = target: CASK, O14936
NHERF3_3, Q5T2W1 = target: T8, NHERF3_3, Q5T2W1
T8 sequence (Q5T2W1 238-333, limits assumed, looked up): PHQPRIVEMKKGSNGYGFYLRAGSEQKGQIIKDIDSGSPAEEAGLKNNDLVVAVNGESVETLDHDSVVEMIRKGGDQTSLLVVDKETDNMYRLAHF

MPP2, Q14168 = target: T9, MPP2, Q14168
T9 sequence (Q14168 180-250, limits assumed, looked up): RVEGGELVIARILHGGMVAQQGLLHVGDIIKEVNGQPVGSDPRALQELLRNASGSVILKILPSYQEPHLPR

GRIP2_3, Q9C0E4 = target: GRIP2_3, Q9C0E4
FRMPD4, Q14CM0 = target: FRMPD4, Q14CM0
ARHGEF12, Q9NZN5-2 = target: ARHGEF12, Q9NZN5-2
GORASP2, Q9H8Y8 = target: GORASP2, Q9H8Y8

Measured: pKd

Chain of TJP2_1, Q9UDY2 (Q9UDY2 24-128): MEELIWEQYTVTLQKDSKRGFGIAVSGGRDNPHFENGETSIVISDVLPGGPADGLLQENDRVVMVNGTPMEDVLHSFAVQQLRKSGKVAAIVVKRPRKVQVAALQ
Chain of IL16_4, Q14005 (Q14005 1229-1329): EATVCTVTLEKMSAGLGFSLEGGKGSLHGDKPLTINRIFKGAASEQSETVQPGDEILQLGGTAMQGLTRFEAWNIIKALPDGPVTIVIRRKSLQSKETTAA
Chain of Inadl_2, Q8NI35 (Q8NI35 238-335): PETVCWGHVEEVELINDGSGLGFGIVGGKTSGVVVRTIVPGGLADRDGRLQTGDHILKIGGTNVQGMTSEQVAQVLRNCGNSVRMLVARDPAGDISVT
Chain of MAGI3_2, Q5TCQ9 (Q5TCQ9 398-503): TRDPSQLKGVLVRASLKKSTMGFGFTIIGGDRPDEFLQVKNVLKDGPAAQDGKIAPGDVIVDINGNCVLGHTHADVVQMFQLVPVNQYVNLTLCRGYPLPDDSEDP
Chain of GRIP2_3, Q9C0E4 (Q9C0E4 238-339): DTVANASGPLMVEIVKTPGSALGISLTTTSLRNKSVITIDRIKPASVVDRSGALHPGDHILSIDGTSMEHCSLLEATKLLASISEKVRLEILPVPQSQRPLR
Chain of MAGI2_6, Q86UL8 (Q86UL8 1141-1229): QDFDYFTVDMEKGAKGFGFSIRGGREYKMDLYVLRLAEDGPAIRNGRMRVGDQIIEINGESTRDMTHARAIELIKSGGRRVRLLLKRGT
Chain of DLG4_1, P78352 (P78352 62-152): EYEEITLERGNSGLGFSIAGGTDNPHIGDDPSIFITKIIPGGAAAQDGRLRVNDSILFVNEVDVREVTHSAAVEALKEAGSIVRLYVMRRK
Chain of MAGI2_4, Q86UL8 (Q86UL8 772-865): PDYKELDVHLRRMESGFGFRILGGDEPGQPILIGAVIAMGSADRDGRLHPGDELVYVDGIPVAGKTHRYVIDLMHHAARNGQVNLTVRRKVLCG
Chain of FRMPD2_1, Q68DX3 (Q68DX3 770-861): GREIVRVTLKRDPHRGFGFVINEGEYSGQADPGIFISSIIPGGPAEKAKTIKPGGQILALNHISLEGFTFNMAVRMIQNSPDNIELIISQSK
Chain of NHERF2_2, Q15599 (Q15599 142-238): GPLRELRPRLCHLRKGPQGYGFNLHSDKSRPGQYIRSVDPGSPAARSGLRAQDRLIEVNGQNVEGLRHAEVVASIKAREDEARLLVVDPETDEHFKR
Chain of CASK, O14936 (O14936 487-570): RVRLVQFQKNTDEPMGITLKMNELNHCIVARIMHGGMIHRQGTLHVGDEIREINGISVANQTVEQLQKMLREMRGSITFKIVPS
Chain of DLG2_2, Q15700 (Q15700 189-283): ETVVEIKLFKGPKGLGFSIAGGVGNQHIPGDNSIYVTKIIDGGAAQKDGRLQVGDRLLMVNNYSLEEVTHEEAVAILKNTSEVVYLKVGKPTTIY
Chain of FRMPD4, Q14CM0 (Q14CM0 67-160): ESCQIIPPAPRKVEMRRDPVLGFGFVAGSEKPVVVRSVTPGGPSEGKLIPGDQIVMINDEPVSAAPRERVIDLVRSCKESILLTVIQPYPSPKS
Chain of ARHGEF12, Q9NZN5-2 (Q9NZN5 other isoform, or with tags, fused parts or gaps): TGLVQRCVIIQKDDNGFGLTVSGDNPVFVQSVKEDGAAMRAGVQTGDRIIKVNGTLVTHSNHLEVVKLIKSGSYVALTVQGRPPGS
Chain of PDLIM1, O00151 (O00151 1-87): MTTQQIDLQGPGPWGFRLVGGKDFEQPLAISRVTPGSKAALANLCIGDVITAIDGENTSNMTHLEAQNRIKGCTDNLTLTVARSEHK
Chain of GRID2IP_1, A4D2P6 (A4D2P6 1-87): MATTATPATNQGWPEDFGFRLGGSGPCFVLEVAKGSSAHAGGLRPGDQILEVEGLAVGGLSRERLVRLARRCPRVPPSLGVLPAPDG
Chain of LIMK2, P53671 (P53671 143-248): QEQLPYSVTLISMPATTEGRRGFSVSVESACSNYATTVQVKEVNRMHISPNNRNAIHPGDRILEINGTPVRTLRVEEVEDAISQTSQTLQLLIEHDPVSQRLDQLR

HLRQQGSVEV [EPHB6, O15197]
4.13: GRID2IP_1, A4D2P6
3.99: APBA1_2, Q02410
3.5: DLG4_1, P78352
3.67: ARHGEF12, Q9NZN5-2
4.14: FRMPD2_1, Q68DX3
4.16: ARHGAP21, Q5T5U3
below the threshold: all other assays above

NLQEHSTTSV [RSBN1, Q5VWQ0]
3.58: APBA1_2, Q02410
4: ARHGEF12, Q9NZN5-2
4.38: MAGI3_2, Q5TCQ9
3.59: NHERF2_2, Q15599
3.5: DLG1_1, Q12959 | MAGI2_4, Q86UL8
3.69: MPP6, Q9NZW5
3.67: DLG2_2, Q15700
4.16: MAGI2_6, Q86UL8
3.84: DLG4_1, P78352
below the threshold: all other assays above

DHLGGGGESM [TNRC6A, Q8NDV7]
3.69: MPP6, Q9NZW5
below the threshold: all other assays above

IPGKEFDTPL [PLCB1, Q9NQ66]
3.58: ARHGAP21, Q5T5U3
5.1: NHERF2_2, Q15599
3.61: ARHGEF12, Q9NZN5-2
3.49: MAGI2_6, Q86UL8
3.51: SNTA1, Q13424 | DLG4_1, P78352
4.95: FRMPD4, Q14CM0
3.59: MPP6, Q9NZW5
below the threshold: all other assays above
